Source: patent US20230190752A1 (WASHINGTON UNIVERSITY, published 2023)

Molecular target: T1, Valosin-Containing Protein phosphorylated at Ser784 (pSer^784-VCP), endogenous, from genotoxin-treated human … (human, UniProt P55072 2-806, phosphoserine at 784)
T1 construct: Endogenous protein in lysates or fixed cells (HeLa, MDA-MB-231, U2OS and others) after SN38, etoposide or HU; it is tied to the assayed protein only through that definition; also called DNA-damage-induced ~100-kDa protein
Assay: co-IP, western blot (FIG. 15B, 14B)
Description: Antibody-bound proteins were analyzed by Western blot for K48-ubiquitin, total VCP and pSer784-VCP. Same amount of control IgG was used to bind the etoposide-treated HeLa samples to control for non-specific binding. […] Samples were analyzed by Western blot for K48-ubiquitin, NPL4, and UFD1. Total VCP bound by the antibodies were visualized by silver staining. […] YFP-FLAG was expressed as a control.
Ser784 Phosphorylation Decreases VCP Association with NPL4/UFD1 and Polyubiquitinated Proteins: To study the regulatory mechanism of Ser784 phosphorylation, the effects on the VCP interaction with protein substrates were first examined. Total VCP (by a pan-VCP antibody) or pSer784-VCP (by 3E4) from etoposide or HU-treated HeLa cell lysates were immunoprecipitated and immunoblotted for co-absorbed K48-polyubiquitinated proteins. […] To better separate pSer784-VCP from unphosphorylated VCP, sequential pull-downs were performed from etoposide-treated HeLa cell lysates to first deplete pSer784-VCP using 3E4 and subsequently capture the remaining unphosphorylated VCP by the pan-antibody. […] Based on the levels of VCP in the input and supernatants after each pull-down, it is evident that Ser784 is phosphorylated at high stoichiometry in response to DNA damage (>50% of total VCP after overnight etoposide treatment) (FIG. 15A).

T1 sequence (P55072 2-806 limits assumed): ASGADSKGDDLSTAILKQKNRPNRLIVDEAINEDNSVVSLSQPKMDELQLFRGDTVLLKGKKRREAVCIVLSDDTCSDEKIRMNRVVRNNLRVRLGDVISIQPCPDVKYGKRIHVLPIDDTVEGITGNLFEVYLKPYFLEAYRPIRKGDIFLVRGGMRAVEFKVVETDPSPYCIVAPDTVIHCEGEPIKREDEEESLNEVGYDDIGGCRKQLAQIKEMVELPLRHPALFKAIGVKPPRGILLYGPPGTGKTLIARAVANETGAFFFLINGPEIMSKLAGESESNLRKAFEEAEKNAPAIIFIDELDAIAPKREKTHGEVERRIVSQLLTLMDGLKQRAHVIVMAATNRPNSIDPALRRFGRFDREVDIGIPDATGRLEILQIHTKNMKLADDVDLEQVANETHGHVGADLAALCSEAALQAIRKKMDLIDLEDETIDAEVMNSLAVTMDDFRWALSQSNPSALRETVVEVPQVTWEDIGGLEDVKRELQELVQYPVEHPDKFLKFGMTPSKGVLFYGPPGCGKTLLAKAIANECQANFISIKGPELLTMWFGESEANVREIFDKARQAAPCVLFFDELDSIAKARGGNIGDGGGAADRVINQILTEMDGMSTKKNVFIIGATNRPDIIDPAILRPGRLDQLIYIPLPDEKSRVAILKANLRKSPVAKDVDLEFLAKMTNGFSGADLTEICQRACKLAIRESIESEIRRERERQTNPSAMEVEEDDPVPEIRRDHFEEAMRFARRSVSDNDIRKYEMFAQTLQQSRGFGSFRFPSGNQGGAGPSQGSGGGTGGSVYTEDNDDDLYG

B1: NPL4 (other, UniProt Q8TAT6 2-608, looked up)
chain: AESIIIRVQSPDGVKRITATKRETAATFLKKVAKEFGFQNNGFSVYINRNKTGEITASSNKSLNLLKIKHGDLLFLFPSSLAGPSSEMETSVPPGFKVFGAPNVVEDEIDQYLSKQDGKIYRSRDPQLCRHGPLGKCVHCVPLEPFDEDYLNHLEPPVKHMSFHAYIRKLTGGADKGKFVALENISCKIKSGCEGHLPWPNGICTKCQPSAITLNRQKYRHVDNIMFENHTVADRFLDFWRKTGNQHFGYLYGRYTEHKDIPLGIRAEVAAIYEPPQIGTQNSLELLEDPKAEVVDEIAAKLGLRKVGWIFTDLVSEDTRKGTVRYSRNKDTYFLSSEECITAGDFQNKHPNMCRLSPDGHFGSKFVTAVATGGPDNQVHFEGYQVSNQCMALVRDECLLPCKDAPELGYAKESSSEQYVPDVFYKDVDKFGNEITQLARPLPVEYLIIDITTTFPKDPVYTFSISQNPFPIENRDVLGETQDFHSLATYLSQNTSSVFLDTISDFHLLLFLVTNEVMPLQDSISLLLEAVRTRNEELAQTWKRSEQWATIEQLCSTVGGQLPGLHEYGAVGGSTHTATAAMWACQHCTFMNQPGTGHCEMCSLPRT
notes: Detected by western blot in VCP co-immunoprecipitates; also called cofactor NPL4
B1: binds.
